Assay results reported in the supplement of paper PMC10724198.
± gives the standard deviation of the averaged measurements.

These sequences were tested on Saccharomyces cerevisiae (assay: protein stability index of tFT-peptide fusion (C-terminal peptide) (PSI (0-1 scale)); higher = more stable (slower turnover)). Conditions: genetic background: wild type; temperature: 30 C.
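Further: PSI is a weighted mean of sequencing reads over stability bins, variants kept only with over 10 reads, mCherry proximal and sfGFP distal, peptide attached via GGGS linker.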

Sequence	protein stability index
ALPAGLRDLPRP	0.586 ± 0.025
WFGSGGRGWREF	0.713 ± 0.048
PPLGMPLYHPRP	0.7426 ± 0.0021
GGGRYCADDGGR	0.763 ± 0.051
HTPPMVGMLCLG	0.6 ± 0.032
GHGGHIVRTSSY	0.7 ± 0.023
CCVSLQSNLLFS	0.68 ± 0.026
PPLPSPPPPSSP	0.7157 ± 0.0022
FRLNSYQNGSRV	0.682 ± 0.043
VTDTSCRAEVEQ	0.701 ± 0.059
IIRKYKARKKNK	0.688 ± 0.041
GLEIGMSQVSMG	0.645 ± 0.036
GSLWGAFFRGLL	0.688 ± 0.04
RQQKTNERRPRT	0.648 ± 0.04
VGRVGVREGVVG	0.638 ± 0.067
IVFYWLAHRPCA	0.6297 ± 0.0059
GGTGRVGEMGGR	0.755 ± 0.034
GVGGVLLCCCIV	0.573 ± 0.35
FLLHHVSRSPSA	0.692 ± 0.014
GCRDQKLGVGVD	0.759 ± 0.064
VLLAGPIPSALP	0.662 ± 0.0079
YTWHKLFFAYAI	0.528 ± 0.0059
LPASSPTEYPPP	0.713 ± 0.049
DSRFMLYIHSSR	0.7132 ± 0.0038
RPPINRLCPWLL	0.671 ± 0.032
GGWGGGGGAWSG	0.71 ± 0.041

Sequence	protein stability index
TSSYFVLFLTSP	0.635 ± 0.087
LDLVFYMFSPFL	0.618 ± 0.061
RTSQLVSRATLD	0.691 ± 0.019
GIPCRCVCLNQW	0.6961 ± 0.0017
ELFGSGERRVVV	0.68 ± 0.014
GRCPPPSPPHPL	0.68 ± 0.038
PPPPDPWTSPRP	0.734 ± 0.027
PPHLPPPRPKPP	0.592 ± 0.028
PSLQPPLHYPPP	0.6448 ± 0.0044
RYEQRKNRRQKL	0.799 ± 0.017
SFFPPFHLLFSY	0.532 ± 0.025
QKKTKRGLTYTS	0.67 ± 0.043
LVDEGRGLRWSR	0.679 ± 0.0075
SWSLIFFGYFPF	0.591 ± 0.029
GGGIGWRAGEFG	0.673 ± 0.0016
ERRPTYFFHDHE	0.693 ± 0.055
LGGRNNRQMSSG	0.678 ± 0.11
NTVLPTPTMSPP	0.702 ± 0.04
LAPTPLAPSPPP	0.728 ± 0.055
RSLSPPPASPIP	0.6755 ± 0.0051
VQGSRKGSRERW	0.683 ± 0.065
RILSFVSCYSLL	0.506 ± 0.0035
GAGGVWVRAWGP	0.768 ± 0.095
YPYRKRTIGVRT	0.595 ± 0.015
VGVWRGWDVDCH	0.776 ± 0.061
ALPCLSPVLPFL	0.729 ± 0.014

Sequence	protein stability index
PPPPPRFSPHPP	0.695 ± 0.013
PPSSPPSVLPPV	0.666 ± 0.021
GRKAEAEASLFS	0.643 ± 0.1
LRLDFPPARPHS	0.697 ± 0.044
FYGLPSVVCGWF	0.671 ± 0.025
ADTIKRTKRSYP	0.643 ± 0.1
ERALYGFSSIFY	0.667 ± 0.075
VHWRDARFLRGM	0.658 ± 0.045
IKKSRSLRIGMN	0.584 ± 0.04
SCLRCSCLTEVL	0.614 ± 0.021
RPPPRSPPLPRL	0.806 ± 0.03
FLFSDLVCSSVF	0.704 ± 0.027
APPPPGPLPPPS	0.698 ± 0.025
QIQNRVDYRIKL	0.6353 ± 0.0031
KIKINKRIQNKK	0.682 ± 0.036
LMHDIRLCSSVV	0.702 ± 0.074
QDLLNVSSFTRS	0.727 ± 0.017
RRWATGGVIGGR	0.677 ± 0.0074
KDKRKAETKSRN	0.688 ± 0.037
LSARIGEMVDTW	0.56 ± 0.027
PSTPFAPPSATY	0.685 ± 0.014
PPRPHPPPRPSS	0.74 ± 0.048
LLRYKWSRHLVG	0.47 ± 0.046
FLWAPRWFCVGH	0.651 ± 0.041
SQFGLGCCQRST	0.723 ± 0.069
DGSFWKGQGAGV	0.671 ± 0.011

Sequence	protein stability index
IKNENKKKKNKK	0.699 ± 0.024
PPAPPFPAPPPR	0.628 ± 0.028
GLSSPLPLALPV	0.649 ± 0.023
RPLVYIKHLALL	0.44 ± 0.17
LFCHHCASLVDL	0.722 ± 0.002
LSPLPPSPPPST	0.543 ± 0.025
FLFLYIPFSPPR	0.62 ± 0.02
GGGGGVCGACVV	0.685 ± 0.016
WCFSLGYFFFCR	0.585 ± 0.05
ELRCEMEFWCER	0.594 ± 0.0066
TNATENKNRHPN	0.741 ± 0.068
PPSLSPFSACLS	0.669 ± 0.064
PWWSRPAASVGV	0.659 ± 0.047
IKTKKKKKKKRD	0.686 ± 0.0099
TPRAALVVSPLV	0.7484 ± 0.0018
ALCVPRTGPFFI	0.737 ± 0.02
AVEVRATVWWWW	0.53259 ± 0.00014
LESCFFGSFFFL	0.778 ± 0.091
VRVYLSQNSRFG	0.723 ± 0.066
KKNMIIRVMIGV	0.495 ± 0.074
GEVRHCRVTVIA	0.539 ± 0.036
MGYDYAPISALF	0.691 ± 0.1
GRFCGGAVSGGM	0.634 ± 0.041
CTTSCARWVTTW	0.647 ± 0.02
YLVGVRDSFALR	0.715 ± 0.02
SPVRRGRCRLSG	0.728 ± 0.1

Sequence	protein stability index
EPLLVSPATPNL	0.7311 ± 0.00091
LHLVRLEGEECL	0.677 ± 0.027
GPRLSGGLGGVG	0.637 ± 0.045
GVLGGGVFGGSV	0.631 ± 0.077
KRYRLRVKIGNT	0.5291 ± 0.0046
RPGLCLTFFSAH	0.666 ± 0.032
PWRPTNPADRSV	0.61 ± 0.1
SPPFLPVPASSL	0.709 ± 0.027
GPKGLLKATSLS	0.659 ± 0.064
KCLCSKSGSWPC	0.685 ± 0.0078
PPSLPRFTPRPA	0.718 ± 0.036
FKVARGVHCGEG	0.6662 ± 0.0037
RSGGSSPRRLFT	0.7 ± 0.0095
LGNFENDEGSQK	0.735 ± 0.026
SRVQYVLDRSVF	0.649 ± 0.0099
PFVAFLPPLSPP	0.702 ± 0.037
HPKPNLPPAAVH	0.6854 ± 0.0049
SFSFLLSLSFLP	0.529 ± 0.017
LLSPLRPPPFAP	0.698 ± 0.041
PPPARLSLPPPD	0.694 ± 0.007
AFFSFLFSNSFL	0.664 ± 0.0082
GGGGRGTAVVGV	0.66 ± 0.048
VWGRGWVVGWFL	0.612 ± 0.066
ARQSVYNDLVYV	0.582 ± 0.0065
SFVSRSRLAEVD	0.682 ± 0.073
FSFCQLSLASFP	0.571 ± 0.01

Sequence	protein stability index
GVGSVQRCGGGG	0.6771 ± 0.0035
FISPSPLPPYSP	0.665 ± 0.059
RFCRPLSHTALA	0.632 ± 0.028
RPPPPRPRSLLS	0.654 ± 0.097
RPPLPPPPPLPP	0.578 ± 0.03
FFFECPCWLGVF	0.542 ± 0.019
PPPPPPSVLSPP	0.722 ± 0.061
HIPRLPRPTRAP	0.682 ± 0.059
PPPPRPLPPAPP	0.63 ± 0.075
VARGVGGGVWRS	0.704 ± 0.015
KQRSKKCRETYR	0.729 ± 0.019
VLRDLGVSLSRA	0.785 ± 0.025
HRILILSGLRAG	0.626 ± 0.041
PRRPAPSPLPTP	0.718 ± 0.2
RWGGSSPGRSFA	0.766 ± 0.0091
PLLPSPPHSPTP	0.657 ± 0.045
FRISWLRVKGRG	0.676 ± 0.035
AGVRFLVIPRPP	0.7182 ± 0.004
DDPGPSTHPRSA	0.63 ± 0.0069
DPAHPRPFDCPL	0.709 ± 0.013
ERASGNWQVYKG	0.639 ± 0.011
VVGRWGWACCRP	0.681 ± 0.071
LRLCPAPYIPVL	0.591 ± 0.012
RAFGQGMGLAFS	0.737 ± 0.0082
ASEKFGIMSTML	0.662 ± 0.045
PPHQPRTPNSPP	0.68 ± 0.034

Sequence	protein stability index
VGGHGGVGGGMG	0.651 ± 0.026
VRCCFGGRGGIA	0.653 ± 0.0079
PLPAISPPPTLP	0.758 ± 0.036
PPPPPIPPPLVP	0.658 ± 0.012
LFRPTPPSFAPP	0.683 ± 0.048
GSMCYRTVTNLR	0.593 ± 0.017
AWDSVNDSDPPR	0.717 ± 0.035
LVFRSMFFFRLF	0.66 ± 0.017
PPLLPPLPFPPP	0.74 ± 0.076
RGGGGGVWGHVV	0.58 ± 0.02
SAPSPPPPLAPP	0.679 ± 0.041
CKRKGREEEEKE	0.7361 ± 0.0064
WGGVGRLAGLLG	0.703 ± 0.021
RRHGDVGFGVGW	0.82 ± 0.1
PPRRLPALPSPL	0.774 ± 0.014
GAVHLNSLPVTK	0.6983 ± 0.0044
NYKFENQIAKPP	0.655 ± 0.077
GGLGSHWDCDGL	0.734 ± 0.093
SIFVNICRRMKC	0.616 ± 0.014
TNSQTKKKINKI	0.661 ± 0.038
VPFFLSNSSHIK	0.679 ± 0.051
WRGLGWSDAGGG	0.654 ± 0.043
AQPGRLHLSCES	0.688 ± 0.052
DKGTDKDDVKIM	0.686 ± 0.011
RSLYGLMNPPRG	0.71 ± 0.011
PPPLASRLLSFL	0.713 ± 0.022

Sequence	protein stability index
RGTYACGMGGVG	0.654 ± 0.074
RNKKIKKKKGRN	0.701 ± 0.069
NLIGVVKSEYHR	0.574 ± 0.01
LWRVRCGLGMSG	0.681 ± 0.15
CFGRSPWLTINV	0.6171 ± 0.0046
PPPPPAPPPQPS	0.699 ± 0.011
VAWRQSVDLGLL	0.685 ± 0.047
GRRRCGGGVEVC	0.668 ± 0.014
RVALVCGLGCIF	0.683 ± 0.029
NSPRKKPHKSIT	0.711 ± 0.014
GPSKTGRPLSGT	0.713 ± 0.026
GLQFDPALPLPP	0.739 ± 0.022
RYNRVVCTEFHL	0.668 ± 0.01
LLCHLSPSSSPI	0.786 ± 0.068
WSYGHVPYDYPF	0.73 ± 0.022
TITRIAFRFCYS	0.556 ± 0.032
SVSLSLLFFLPF	0.675 ± 0.025
KNKMGRKYTLPH	0.654 ± 0.081
RITTVPNSNPGN	0.689 ± 0.08
RIKQKEEKRNRY	0.779 ± 0.01
